Experimental data from patent publication US20060292672.

Biological target: T1, rhPTH(1-34)Gly35-OH, P01270
T1 chain: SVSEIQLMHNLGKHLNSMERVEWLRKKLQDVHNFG

B1: peptidylglycine alpha-amidating monooxygenase expressed by cell line UGL 73-26/M (protein)
chain: FRSPLSVFKRFKETTRSFSNECLGTIGPVTPLDASDFALDIRMPGVTPKESDTYFCMSMRLPVDEEAFVIDFKPRASMDTVHHMLLFGCNMPSSTGSYWFCDEGTCTDKANILYAWARNAPPTRLPKGVGFRVGGETGSKYFVLQVHYGDISAFRDNHKDCSGVSVHLTRVPQPLIAGMYLMMSVDTVIPPGEKVVNADISCQYKMYPMHVFAYRVHTHHLGKVVSGYRVRNGQWTLIGRQNPQLPQAFYPVEHPVDVTFGDILAARCVFTGEGRTEATHIGGTSSDEMCNLYIMYYMEAKYALSFMTCTKNVAPDMFRTIPAEANIPIPVKPDMVMMHGHHKEAENKEKSALMQQPKQGEEEVLEQDFHVEEELDWPGVYLLPGQVSGVALDSKNNLVIFHRGDHVWDGNSFDSKFVYQQRGLGPIEEDTILVIDPNNAEILQSSGKNLFYLPHGLSIDTDGNYWVTDVALHQVFKLDPHSKEGPLLILGRSMQPGSDQNHFCQPTDVAVEPSTGAVFVSDGYCNSRIVQFSPSGKFVTQWGEESSGSSPRPGQFSVPHSLALVPHLDQLCVADRENGRIQCFKTDTKEFVREIKHASFGRNVFAISYIPGFLFAVNGKPYFGDQEPVQGFVMNFSSGEIIDVFKPVRKHFDMPHDIVASEDGTVYIGDAHTNTVWKFTLTEKMEHRSV
For B1, the “overall yield of rhPTH(1-34)-NH2 from enzymatic amidation (preparative reaction followed by CEX and RP purification)” value was “yielding 11.8 grams (95% overall yield from amidation) of rhPTH(1-34)-NH2”.
